# Tested on: CC(=O)N[C@H]1[C@@H](OP(=O)(O)OP(=O)(O)OC[C@H]2O[C@@H](n3ccc(=O)[nH]c3=O)[C@H](O)[C@@H]2O)O[C@H](C)[C@@H](NC(C)=O)[C@@H]1O
# Experiment: purified protein
# Conditions: Mg2+
substance,measurement,value
PglC (Campylobacter jejuni subsp. jejuni NCTC 11168 = ATCC 700819),Km,7.2 ± 1.1 µM

# Reference: publication PMC5506376
